The target in assay [1] is type II human collagen (human). Briefly: SPR. (In general: SPR reads the build-up and loss of mass on a sensor chip optically.)
For assay [2], the target named is coch_vWFA2_F527C protein, monomeric form (recombinant vWFA2 domain of human cochlin carrying the p.F527C mutation) (human). As to the kind of experiment: non-reducing SDS-PAGE.
Another assay concerns the target type II collagen (UniProt P02458). As to the kind of experiment: SPR. As to conditions: cited from earlier work.

type II collagen, sequence (P02458 182-1241): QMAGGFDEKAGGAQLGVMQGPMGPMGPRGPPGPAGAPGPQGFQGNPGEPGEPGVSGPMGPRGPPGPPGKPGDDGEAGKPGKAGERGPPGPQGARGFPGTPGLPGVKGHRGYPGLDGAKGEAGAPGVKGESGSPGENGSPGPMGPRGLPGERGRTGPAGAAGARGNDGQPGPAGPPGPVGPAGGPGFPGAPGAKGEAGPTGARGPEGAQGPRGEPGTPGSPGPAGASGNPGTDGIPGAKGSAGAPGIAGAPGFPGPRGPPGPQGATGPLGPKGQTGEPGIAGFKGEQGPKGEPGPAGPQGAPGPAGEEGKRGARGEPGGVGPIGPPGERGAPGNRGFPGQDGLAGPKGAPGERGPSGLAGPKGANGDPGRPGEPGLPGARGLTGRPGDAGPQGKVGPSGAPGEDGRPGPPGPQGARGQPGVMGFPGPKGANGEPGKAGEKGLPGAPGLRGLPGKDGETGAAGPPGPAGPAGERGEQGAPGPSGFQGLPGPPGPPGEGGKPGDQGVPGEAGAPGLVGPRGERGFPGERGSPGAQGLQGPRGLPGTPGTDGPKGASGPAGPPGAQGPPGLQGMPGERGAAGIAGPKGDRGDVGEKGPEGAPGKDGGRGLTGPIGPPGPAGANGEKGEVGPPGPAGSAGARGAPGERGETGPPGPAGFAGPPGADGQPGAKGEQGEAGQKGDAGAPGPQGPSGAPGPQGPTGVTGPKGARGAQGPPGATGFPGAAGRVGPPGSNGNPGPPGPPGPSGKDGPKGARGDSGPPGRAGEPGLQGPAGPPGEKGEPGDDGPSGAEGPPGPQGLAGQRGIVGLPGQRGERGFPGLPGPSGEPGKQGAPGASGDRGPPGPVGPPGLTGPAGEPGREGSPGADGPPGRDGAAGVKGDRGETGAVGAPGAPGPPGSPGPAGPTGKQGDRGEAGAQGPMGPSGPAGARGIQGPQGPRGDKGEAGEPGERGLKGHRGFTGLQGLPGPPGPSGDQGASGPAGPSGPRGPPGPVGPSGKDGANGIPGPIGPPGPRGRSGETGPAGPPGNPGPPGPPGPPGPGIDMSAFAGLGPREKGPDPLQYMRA

Substance “coch_vWFA2_F527C protein, dimeric form (covalent disulfide-bonded dimer) (domain or fragment)” had a Kd of the higher-affinity species (heterogeneous analyte, two species 1:1) in assay [1] of 950 nM.

Usually stoichiometry N stands for a count of units in the complex or per binding partner. Take “coch_vWFA2_F527C protein, monomeric form (recombinant vWFA2 domain of human cochlin carrying the p.F527C mutation) (domain or fragment)”: in assay [2], the stoichiometry N was 2.

In general, Kd refers to the equilibrium constant for the complex coming apart. cochlin vWFA2 (from UniProt O43405): the equilibrium dissociation constant (Kd) in the assay with type II collagen is 94.5 nM.

These data come from paper PMC4361775.
